Data published in patent US20200399344A1 (SHATTUCK LABS, published 2020).
Several values for one entry are separate records, joined by “and”; a condition that tells them apart may be missing. Equal entries are not always repeated. One block for each binder: values may come before it.

Key:
[1] = biological target: T1, mCTLA-4, plate-bound (mouse, UniProt P09793 36-162, limits assumed); experiment: ELISA (single-sided): coat mCTLA-4 (R&D), detect Anti-mFc-HRP (Jax)
[2] = biological target: T2, HLA class I histocompatibility antigen, alpha chain E (HLA-E), plate-bound recombinant protein (human, UniProt P13747 22-305, limits assumed); experiment: ELISA (single-sided): coat hHLA-E (Novus), detect Anti-mFc-HRP (Jax)
T2 construct: no tag named there; also called recombinant HLA-E protein
T2 sequence (P13747 22-305 limits assumed): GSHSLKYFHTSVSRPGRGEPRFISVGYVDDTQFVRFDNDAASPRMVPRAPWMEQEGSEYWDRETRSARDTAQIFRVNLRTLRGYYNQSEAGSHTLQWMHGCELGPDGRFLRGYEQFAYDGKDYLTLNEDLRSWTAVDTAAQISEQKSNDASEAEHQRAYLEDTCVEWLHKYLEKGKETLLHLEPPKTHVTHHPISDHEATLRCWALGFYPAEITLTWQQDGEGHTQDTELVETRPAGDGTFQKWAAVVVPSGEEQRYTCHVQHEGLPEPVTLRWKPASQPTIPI

[3] = biological target: T3, recombinant mCD47 (mCD47-His) protein (mouse, UniProt Q61735 19-140, limits assumed); experiment: dual/PK ELISA; coat αNKG2a (1:10k), mCD86-fc-NKG2a titrated, detection mCD47-His (5ug/ml), His-HRP
T3 construct: not shown: His tag
T3 sequence (looked up): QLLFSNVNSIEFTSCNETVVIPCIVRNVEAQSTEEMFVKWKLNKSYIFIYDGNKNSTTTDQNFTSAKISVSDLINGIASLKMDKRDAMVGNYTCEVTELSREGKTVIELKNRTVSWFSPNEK
Method: Increasing amounts of the mSIRPα-Fc-NKG2A chimeric protein was added and detected using mCD47-His. The CD86-Fc-NKG2A chimeric protein was used as a negative control.
To understand whether the mSIRPα-Fc-NKG2A chimeric protein can binds simultaneously to both anti-NKG2a and CD47, the following ELISA experiment was carried out. Briefly, and anti-NKG2a antibody was coated on plates. Increasing amounts of the mSIRPα-Fc-NKG2A and mCD48-Fc-NKG2A chimeric proteins were added to the plates for capture by the anti-NKG2a antibody. Further, recombinant mCD47 (mCD47-His) protein was added to the plate for capture by mSIRPα-Fc-NKG2A chimeric protein. The binding of the mCD47-His protein was detected using an anti-His HRP antibody.

[4] = biological target: T4, goat anti-mCD48 antibody; experiment: Dual binding ELISA: coat mHLA-E (Novus) as printed, detect Anti-mCD48 (R&D), HRP Anti-Goat HRP; flat curve
T4 construct: also called anti-CD48; Anti-CD48

[5] = biological target: T1, mCTLA-4, plate-bound; experiment: ELISA (single-sided): coat mCTLA-4 (R&D), detect Anti-mFc-HRP (Jax); curve near the baseline, about 0.25 only at the highest concentration
[6] = biological target: T5, PD-L1, plate-bound (Example 8) (Homo sapiens (Human), UniProt Q9NZQ7 19-238); experiment: Dual ELISA (capturing with PDL1): coat hPDL1-Fc (R&D), detect hHLA-E (Novus), HRP Anti-6X His; curve low, about 0.45 at the highest concentration
T5 construct: not shown: The Fc carrier of the vendor's hPD-L1-Fc (R&D) and any linker
T5 sequence (Q9NZQ7 19-238 limits assumed): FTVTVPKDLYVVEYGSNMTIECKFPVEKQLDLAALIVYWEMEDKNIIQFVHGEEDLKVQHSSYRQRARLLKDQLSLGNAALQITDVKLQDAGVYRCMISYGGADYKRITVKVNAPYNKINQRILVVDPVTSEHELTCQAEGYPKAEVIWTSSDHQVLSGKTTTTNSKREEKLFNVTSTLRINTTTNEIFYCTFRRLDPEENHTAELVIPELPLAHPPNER

[7] = biological target: T6, recombinant human CD28-His (rhCD28-His) (human, UniProt P10747 19-152); experiment: ELISA: coat rhCD28-His (Acro), detection Anti-hFc-HRP
T6 construct: also called Human CD28-His protein; recombinant CD28 protein; not shown: His tag
T6 sequence (P10747 19-152 limits assumed): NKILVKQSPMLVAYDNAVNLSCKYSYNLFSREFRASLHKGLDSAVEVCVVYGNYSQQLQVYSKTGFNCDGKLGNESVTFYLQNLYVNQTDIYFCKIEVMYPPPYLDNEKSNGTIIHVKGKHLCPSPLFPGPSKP
Method: To understand whether the CD80 and CD86 parts of the hCD80-Fc-NKG2A and hCD86-Fc-NKG2A chimeric protein can bind CD28, ELISA-based assays were performed. Briefly, recombinant CD28 protein was coated on plates and increasing amounts of the hCD80-Fc-NKG2A, hCD86-Fc-NKG2A, and mCD48-Fc-NKG2A chimeric proteins, and recombinant human CD86-Fc (rhCD86-Fc) protein was added to the plates for capture by the plate-bound recombinant CD28 protein. The mCD48-Fc-NKG2A chimeric protein, and recombinant human CDrhCD86-Fc protein was used as negative and positive controls, respectively. The chimeric proteins bound to the recombinant CD28 protein was detected using an anti-human Fc HRP.

[8] = biological target: T7, recombinant human 2B4-Fc fusion protein (rh2B4-Fc) (human, UniProt Q9BZW8-2 22-221, limits assumed); experiment: dual ELISA; coat rh2B4-Fc, hCD86-Fc-NKG2A titrated, detection HLA-E-His, Anti 6x-His-HRP
T7 construct: not shown: Fc
T7 sequence (looked up): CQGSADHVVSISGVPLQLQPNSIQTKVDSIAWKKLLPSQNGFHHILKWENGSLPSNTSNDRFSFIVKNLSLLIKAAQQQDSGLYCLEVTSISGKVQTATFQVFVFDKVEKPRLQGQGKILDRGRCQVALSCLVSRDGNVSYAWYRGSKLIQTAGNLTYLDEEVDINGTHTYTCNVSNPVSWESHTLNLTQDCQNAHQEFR
Method: (§1) (i) recombinant human 2B4-Fc fusion protein (rh2B4-Fc) was coated on plates. Increasing amounts of the hCD48-Fc-NKG2A or hCD86-Fc-NKG2A chimeric proteins were added and detected using HLA-E-His. The hCD86-Fc-NKG2A chimeric protein was used as a negative control (Negative control #1). […] (ii) recombinant human CD2-Fc fusion protein (rhCD2-Fc) was coated on plates. Increasing amounts of the hCD58-Fc-NKG2A or hCD86-Fc-NKG2A chimeric proteins were added and detected using HLA-E-His. The hCD86-Fc-NKG2A chimeric protein was used as a negative control (Negative control #2).
(§2) To understand whether the hCD48-Fc-NKG2A chimeric protein can bind simultaneously to both 2B4 and HLA-E, the following ELISA experiment was carried out. Briefly, and recombinant 2B4 (rh2B4-Fc) protein was coated on plates. Increasing amounts of the hCD48-Fc-NKG2A chimeric protein was added to the plates for capture by the recombinant human 2B4-Fc (rh2B4-Fc) protein. Further, recombinant HLA-E (HLA-E-His) protein was added to the plate for capture by hCD48-Fc-NKG2A chimeric proteins. The binding of the HLA-E-His protein was detected using an anti-His 6× HRP antibody.

[9] = biological target: T8, recombinant human CD2-Fc fusion protein (rhCD2-Fc) (human, UniProt P06729 25-209); experiment: dual ELISA; coat rhCD2-Fc, hCD86-Fc-NKG2A titrated, detection HLA-E-His, Anti 6x-His-HRP
T8 construct: not shown: Fc
T8 sequence (looked up): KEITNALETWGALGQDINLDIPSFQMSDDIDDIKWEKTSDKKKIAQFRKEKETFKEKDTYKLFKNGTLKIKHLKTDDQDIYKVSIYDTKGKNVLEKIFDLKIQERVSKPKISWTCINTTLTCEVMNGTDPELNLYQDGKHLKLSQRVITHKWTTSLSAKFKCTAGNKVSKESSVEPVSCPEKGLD
Method: as §1
as §2, with “hCD58-Fc-NKG2A” for “hCD48-Fc-NKG2A”, “CD2” for “2B4”, “CD2 (rhCD2-Fc)” for “2B4 (rh2B4-Fc)”, “CD2-Fc (rhCD2-Fc)” for “2B4-Fc (rh2B4-Fc)”

[10] = biological target: T9, hCD28 expressed on CHO-K1/hCD28 cells (human, UniProt P10747 19-220); experiment: flow cytometry on CHO-K1/hCD28 cells (hCD28-C1), APC-A, dose series (doses not given)
T9 construct: whole, on cells; also called CHO-K1/CD28
T9 sequence (P10747 19-220): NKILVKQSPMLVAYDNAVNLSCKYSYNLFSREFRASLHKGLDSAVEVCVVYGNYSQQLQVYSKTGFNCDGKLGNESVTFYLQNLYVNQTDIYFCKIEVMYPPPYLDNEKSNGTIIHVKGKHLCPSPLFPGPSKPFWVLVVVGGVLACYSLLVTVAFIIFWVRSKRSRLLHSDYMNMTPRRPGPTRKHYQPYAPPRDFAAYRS
Method: To determine whether the hCD86-Fc-NKG2A chimeric protein can specifically bind the CHO-K1/hCD28 cells, a flow-cytometry-based assay was carried out. […] The dose dependent shifts in the flow cytometry profiles illustrate a dose-dependent binding of the hCD86-Fc-NKG2A chimeric protein to hCD28 expressed by the CHO-K1/hCD28 cells. A quantitation of binding confirmed a dose-dependent binding (FIG. 65).

[11] = biological target: T10, anti-human IgG antibody (plate-bound); experiment: ELISA (single sided Fc): coat Anti-Human IgG (H+L) Jax# 109-005-088, detection HRP Goat anti-human FCgamma
T10 construct: also called anti-human Fc antibody
Method: Anti-human IgG was coated on plates and increasing amounts of the indicated chimeric proteins were added to the plates. hIgG was used as a positive control, and mCD80-Fc-NKG2A was used as a negative control. The binding was detected using an anti-human Fcgamma HRP.
To understand whether the Fc linkers from the native chimeric proteins can be accessed by anti-human antibodies, ELISA-based assays were performed. For these assays, an anti-human IgG antibody was coated on plates and increasing amounts of the hCD86-Fc-NKG2A and hTGFBR2-Fc-NKG2A, mCD80-Fc-NKG2a chimeric proteins, and a human IgG antibody were added to the plates for capture by the plate-bound anti-human antibody. The human IgG antibody was used as a positive control and to generate a standard curve. The mCD80-Fc-NKG2a chimeric protein was included as a negative control as containing a non-human Fc domain. The protein bound to the anti-human IgG antibody was detected using an anti-human Fcgamma HRP.

[12] = biological target: T11, recombinant human CD28-Fc (rhCD28-Fc) protein (human, UniProt P10747 19-152); experiment: dual ELISA; coat rhCD28-Fc, hCD86-Fc-NKG2a titrated, detection HLA-E-His, Anti-His-6x-HRP; the signal needs both bindings
T11 construct: not shown: Fc
T11 sequence (P10747 19-152 limits assumed): as the sequence (P10747 19-152 limits assumed) above
Method: To understand whether the hCD86-Fc-NKG2A chimeric protein can binds simultaneously to both hCD28 and HLA-E, the following ELISA experiment was carried out. Briefly, and recombinant hCD28 (rhCD28-Fc) protein was coated on plates. Increasing amounts of the hCD86-Fc-NKG2A chimeric protein was added to the plates for capture by the rhCD28-Fc protein. Further, recombinant HLA-E (HLA-E-His) protein was added to the plate for capture by hCD86-Fc-NKG2A chimeric protein. The binding of the HLA-E-His protein was detected using an anti-His 6× HRP antibody.

EC50 [1]: 0.000658 µM
EC50 [2]: 0.0661 µM and 0.0832 µM
EC50 [4]: ~0.00555 µM
EC50 [5]: ~4050 µM
EC50 [6]: 1.65 µM
B1: mouse CD86-Fc-NKG2A chimeric protein (Fc fusion)
chain: VSVETQAYFNGTAYLPCPFTKAQNISLSELVVFWQDQQKLVLYEHYLGTEKLDSVNAKYLGRTSFDRNNWTLRLHNVQIKDMGSYDCFIQKKPPTGSIILQQTLTELSVIANFSEPEIKLAQNVTGNSGINLTCTSKQGHPKPKKMYFLITNSTNEYGDNMQISQDNVTELFSISNSLSLSFPDGVWHMTVVCVLETESMKISSKPLNFTQEFPSPQTYWKVPRDCGCKPCICTVPEVSSVFIFPPKPKDVLTITLTPKVTCVVVDISKDDPEVQFSWFVDDVEVHTAQTQPREEQFNSTFRSVSELPIMHQDWLNGKEFKCRVNSAAFPAPIEKTISKTKGRPKAPQVYTIPPPKEQMAKDKVSLTCMITDFFPEDITVEWQWNGQPAENYKNTQPIMDTDGSYFVYSKLNVQKSNWEAGNTFTCSVLHEGLHNHHTEKSLSHSPGIIEGRMDTPYTEAKAQINSSMTRTHRDINYTLSSAQPCPHCPKEWISYSHNCYFIGMERKSWNDSLVSCISKNCSLLYIDSEEEQDFLQSLSLISWTGILRKGRGQPWVWKEDSIFKPKIAEILHDECNCAMMSASGLTADNCTTLHPYLCKCKFPI
notes: Batch 1 and Batch 2 were tested; also called mCD86-Fc-NKG2A
binding result [3]: no binding (tested: about log 1.8 ug/ml (roughly 60 ug/ml))

binding result [7]: binds
binding result [10]: binds
EC50 (read off the curve) [11]: ~1 µg/mL
binding result [12]: binds
B2: human CD86-Fc-NKG2A chimeric protein (Fc fusion)
chain: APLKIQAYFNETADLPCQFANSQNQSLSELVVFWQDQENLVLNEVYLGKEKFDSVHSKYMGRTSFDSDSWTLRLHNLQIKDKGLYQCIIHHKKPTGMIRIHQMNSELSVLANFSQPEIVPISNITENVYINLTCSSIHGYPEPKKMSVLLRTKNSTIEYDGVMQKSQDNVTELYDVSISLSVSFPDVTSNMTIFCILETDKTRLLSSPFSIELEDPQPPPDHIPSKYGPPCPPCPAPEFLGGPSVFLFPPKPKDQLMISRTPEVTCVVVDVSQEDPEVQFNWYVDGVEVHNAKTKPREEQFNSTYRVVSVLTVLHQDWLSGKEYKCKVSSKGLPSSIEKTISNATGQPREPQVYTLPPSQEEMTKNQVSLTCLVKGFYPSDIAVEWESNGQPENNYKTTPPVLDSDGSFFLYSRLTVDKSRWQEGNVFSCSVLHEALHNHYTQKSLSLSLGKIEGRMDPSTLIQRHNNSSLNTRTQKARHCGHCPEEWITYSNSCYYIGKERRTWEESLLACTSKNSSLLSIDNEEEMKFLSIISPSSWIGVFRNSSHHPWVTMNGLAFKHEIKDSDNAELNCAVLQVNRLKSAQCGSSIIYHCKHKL
notes: also called hCD86-Fc-NKG2A
binding result [8]: no binding (tested: about log 2.7 ug/ml (roughly 500 ug/ml))
binding result [9]: no binding (tested: about log 2.7 ug/ml (roughly 500 ug/ml))
